Measured values as given in the supplement of paper PMC7125110.
± gives the standard error. For some assays here: This sample holds only a part of the variants without activity.

B1: glmS ribozyme (parent)
chain: AUAAAAGCGCCAGAACUACAGAAAUGUAGUUGACGAGGAGGAGGUUUAUCGAAUUUUCGGCGGAUGCCUCCAAA

Legend:
Conditions in all cases: with glucosamine-6-phosphate
[1] = variants of: B1; assay: kcat; higher = faster cleavage; RNA array
Summary of the method: (§1)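 Glucosamine-6-phosphate in HEPES/KCl/Mg(OAc)2 buffer, at 40 μM to 10 mM, was flowed over barcoded ribozyme variants transcribed in situ by E. coli RNA polymerase on sequenced MiSeq chips. Tracking was through a hybridised Cy3 probe at 37 °C. kobs, kcat and KM came from exponential decay fits and weighted Michaelis–Menten fits of normalised per-tile medians.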

[2] = variants of: B1; assay: KM; higher = weaker cofactor use; RNA array
Summary of the method: as §1

[3] = variants of: B1; assay: self-cleavage kobs at 2500 uM GlcN6P; higher = faster cleavage; RNA array
Summary of the method: as §1

[4] = variants of: B1; assay: self-cleavage kobs at 10000 uM GlcN6P; higher = faster cleavage; RNA array
Summary of the method: as §1

[5] = variants of: B1; assay: self-cleavage kobs at 40 uM GlcN6P; higher = faster cleavage; RNA array
Summary of the method: as §1

[6] = variants of: B1; assay: self-cleavage kobs at 160 uM GlcN6P; higher = faster cleavage; RNA array
Summary of the method: as §1

[7] = variants of: B1; assay: self-cleavage kobs at 640 uM GlcN6P; higher = faster cleavage; RNA array
Summary of the method: as §1

Variant: A12C G43U
- kcat [1]: 5.32e-05 ± 9.5e-07 s⁻¹
- KM [2]: 1200 ± 86 µM
- self-cleavage kobs at 2500 uM GlcN6P [3]: 3.6e-05 ± 8e-06 s⁻¹
- self-cleavage kobs at 10000 uM GlcN6P [4]: 4.74e-05 ± 9.2e-06 s⁻¹

Variant: C10A U54A
- kcat [1]: < 1e-05 s⁻¹
- self-cleavage kobs at 40 uM GlcN6P [5]: < 1e-05 s⁻¹

Variant: G7A C16G
- kcat [1]: < 1e-05 s⁻¹
- self-cleavage kobs at 40 uM GlcN6P [5]: < 1e-05 s⁻¹
- self-cleavage kobs at 160 uM GlcN6P [6]: < 1e-05 s⁻¹
- self-cleavage kobs at 2500 uM GlcN6P [3]: < 1e-05 s⁻¹
- self-cleavage kobs at 10000 uM GlcN6P [4]: < 1e-05 s⁻¹

Variant: A12C C67A
- kcat [1]: 0.00471 ± 0.0013 s⁻¹
- KM [2]: 1180 ± 470 µM
- self-cleavage kobs at 40 uM GlcN6P [5]: 0.000204 ± 1.9e-05 s⁻¹
- self-cleavage kobs at 160 uM GlcN6P [6]: 0.000456 ± 7.2e-05 s⁻¹
- self-cleavage kobs at 640 uM GlcN6P [7]: 0.00125 ± 0.0002 s⁻¹
- self-cleavage kobs at 2500 uM GlcN6P [3]: 0.0034 ± 0.00084 s⁻¹
- self-cleavage kobs at 10000 uM GlcN6P [4]: 0.00467 ± 0.00054 s⁻¹

Variant: C11A A15U
- kcat [1]: 6.57e-05 ± 4.8e-06 s⁻¹
- KM [2]: 1510 ± 380 µM
- self-cleavage kobs at 2500 uM GlcN6P [3]: 3.75e-05 ± 1.7e-05 s⁻¹
- self-cleavage kobs at 10000 uM GlcN6P [4]: 5.85e-05 ± 1.7e-05 s⁻¹

Variant: G13A C16U
- kcat [1]: 0.000763 ± 9.4e-05 s⁻¹
- KM [2]: 2220 ± 460 µM
- self-cleavage kobs at 160 uM GlcN6P [6]: 4.29e-05 ± 1.2e-05 s⁻¹
- self-cleavage kobs at 640 uM GlcN6P [7]: 0.000172 ± 2.2e-05 s⁻¹
- self-cleavage kobs at 2500 uM GlcN6P [3]: 0.000459 ± 5.5e-05 s⁻¹
- self-cleavage kobs at 10000 uM GlcN6P [4]: 0.000577 ± 7.9e-05 s⁻¹

Variant: G13A C16G
- kcat [1]: 0.000217 ± 1.4e-05 s⁻¹
- KM [2]: 1970 ± 290 µM
- self-cleavage kobs at 640 uM GlcN6P [7]: 5.02e-05 ± 1.2e-05 s⁻¹
- self-cleavage kobs at 2500 uM GlcN6P [3]: 0.000131 ± 2.4e-05 s⁻¹
- self-cleavage kobs at 10000 uM GlcN6P [4]: 0.000178 ± 2.5e-05 s⁻¹

Variant: C10A
- kcat [1]: < 1e-05 s⁻¹
- KM [2]: 559 ± 95 µM
- self-cleavage kobs at 10000 uM GlcN6P [4]: < 1e-05 s⁻¹

Variant: C10U
- kcat [1]: 2.6e-05 ± 1.4e-06 s⁻¹
- KM [2]: 499 ± 190 µM
- self-cleavage kobs at 40 uM GlcN6P [5]: < 1e-05 s⁻¹
- self-cleavage kobs at 640 uM GlcN6P [7]: 1.32e-05 ± 2e-06 s⁻¹
- self-cleavage kobs at 2500 uM GlcN6P [3]: 2.39e-05 ± 1.5e-06 s⁻¹
- self-cleavage kobs at 10000 uM GlcN6P [4]: 2.41e-05 ± 1e-06 s⁻¹

Variant: A6U U54C
- kcat [1]: 0.000261 ± 4.2e-05 s⁻¹
- KM [2]: 2260 ± 670 µM
- self-cleavage kobs at 640 uM GlcN6P [7]: 5.25e-05 ± 1.2e-05 s⁻¹
- self-cleavage kobs at 2500 uM GlcN6P [3]: 0.000165 ± 3.3e-05 s⁻¹
- self-cleavage kobs at 10000 uM GlcN6P [4]: 0.000195 ± 4.6e-05 s⁻¹

Variant: C11G G59U C68A
- kcat [1]: 1.43e-05 ± 2.1e-06 s⁻¹

Variant: G9U C50G
- kcat [1]: 2.48e-05 ± 1.1e-05 s⁻¹

Variant: C10U A15G C68U
- kcat [1]: 1.81e-05 ± 6.2e-06 s⁻¹

Variant: C8U A42U
- kcat [1]: < 1e-05 s⁻¹
- self-cleavage kobs at 640 uM GlcN6P [7]: < 1e-05 s⁻¹

Variant: C8U C50G
- kcat [1]: 0.000208 ± 1.2e-05 s⁻¹
- KM [2]: 31 ± 8 µM
- self-cleavage kobs at 40 uM GlcN6P [5]: 0.00012 ± 2e-05 s⁻¹
- self-cleavage kobs at 160 uM GlcN6P [6]: 0.000167 ± 2.4e-05 s⁻¹
- self-cleavage kobs at 640 uM GlcN6P [7]: 0.000188 ± 3.3e-05 s⁻¹
- self-cleavage kobs at 2500 uM GlcN6P [3]: 0.000229 ± 3.5e-05 s⁻¹
- self-cleavage kobs at 10000 uM GlcN6P [4]: 0.000178 ± 7.7e-05 s⁻¹

Variant: C11U G29C
- kcat [1]: 0.00018 ± 9.3e-06 s⁻¹
- KM [2]: 1860 ± 290 µM
- self-cleavage kobs at 640 uM GlcN6P [7]: 4.1e-05 ± 1.1e-05 s⁻¹
- self-cleavage kobs at 2500 uM GlcN6P [3]: 0.000109 ± 1.3e-05 s⁻¹
- self-cleavage kobs at 10000 uM GlcN6P [4]: 0.00015 ± 1.2e-05 s⁻¹

Variant: G13A A36C
- kcat [1]: < 1e-05 s⁻¹
- self-cleavage kobs at 10000 uM GlcN6P [4]: < 1e-05 s⁻¹

Variant: G13A A15C
- kcat [1]: 0.000242 ± 3.2e-05 s⁻¹
- KM [2]: 2680 ± 760 µM
- self-cleavage kobs at 640 uM GlcN6P [7]: 5.24e-05 ± 1.1e-05 s⁻¹
- self-cleavage kobs at 2500 uM GlcN6P [3]: 9.3e-05 ± 2.5e-05 s⁻¹
- self-cleavage kobs at 10000 uM GlcN6P [4]: 0.000198 ± 2.6e-05 s⁻¹

Variant: A12G A14U G32U G60A G66U
- kcat [1]: < 1e-05 s⁻¹
- self-cleavage kobs at 10000 uM GlcN6P [4]: < 1e-05 s⁻¹

Variant: G7C G38C
- kcat [1]: < 1e-05 s⁻¹
- self-cleavage kobs at 10000 uM GlcN6P [4]: < 1e-05 s⁻¹

Variant: A12G U65G
- kcat [1]: 0.000107 ± 1.4e-05 s⁻¹
- KM [2]: 2380 ± 960 µM
- self-cleavage kobs at 640 uM GlcN6P [7]: 3.32e-05 ± 9e-06 s⁻¹
- self-cleavage kobs at 2500 uM GlcN6P [3]: 4.72e-05 ± 8.3e-06 s⁻¹
- self-cleavage kobs at 10000 uM GlcN6P [4]: 8.79e-05 ± 7.1e-06 s⁻¹

Variant: G13A G32A
- kcat [1]: 0.00473 ± 0.0013 s⁻¹
- KM [2]: 4730 ± 1900 µM
- self-cleavage kobs at 40 uM GlcN6P [5]: 4.73e-05 ± 7.3e-06 s⁻¹
- self-cleavage kobs at 160 uM GlcN6P [6]: 0.000204 ± 6.5e-05 s⁻¹
- self-cleavage kobs at 640 uM GlcN6P [7]: 0.000518 ± 0.00011 s⁻¹
- self-cleavage kobs at 2500 uM GlcN6P [3]: 0.00129 ± 0.00022 s⁻¹
- self-cleavage kobs at 10000 uM GlcN6P [4]: 0.00362 ± 0.00047 s⁻¹

Variant: A6U G29C
- kcat [1]: < 1e-05 s⁻¹
- self-cleavage kobs at 40 uM GlcN6P [5]: < 1e-05 s⁻¹
- self-cleavage kobs at 160 uM GlcN6P [6]: < 1e-05 s⁻¹
- self-cleavage kobs at 640 uM GlcN6P [7]: < 1e-05 s⁻¹

Variant: A12C U54G
- kcat [1]: 0.0218 ± 0.01 s⁻¹
- self-cleavage kobs at 40 uM GlcN6P [5]: 0.000492 ± 7.4e-05 s⁻¹
- self-cleavage kobs at 160 uM GlcN6P [6]: 0.0011 ± 0.00016 s⁻¹
- self-cleavage kobs at 640 uM GlcN6P [7]: 0.00452 ± 0.00083 s⁻¹
- self-cleavage kobs at 2500 uM GlcN6P [3]: 0.0102 ± 0.0016 s⁻¹
- self-cleavage kobs at 10000 uM GlcN6P [4]: 0.0271 ± 0.0095 s⁻¹

Variant: G7U G51A G62A C70U
- kcat [1]: 1.17e-05 ± 2.6e-06 s⁻¹

Variant: C11U C67A
- kcat [1]: 0.000277 ± 2.6e-05 s⁻¹
- KM [2]: 801 ± 180 µM
- self-cleavage kobs at 160 uM GlcN6P [6]: 4.36e-05 ± 1.8e-05 s⁻¹
- self-cleavage kobs at 640 uM GlcN6P [7]: 0.000121 ± 1.3e-05 s⁻¹
- self-cleavage kobs at 2500 uM GlcN6P [3]: 0.000256 ± 4e-05 s⁻¹
- self-cleavage kobs at 10000 uM GlcN6P [4]: 0.000242 ± 3e-05 s⁻¹

Variant: A6U U45G
- kcat [1]: 0.000193 ± 3.9e-05 s⁻¹
- self-cleavage kobs at 160 uM GlcN6P [6]: < 1e-05 s⁻¹
- self-cleavage kobs at 10000 uM GlcN6P [4]: 4.41e-05 ± 9.1e-06 s⁻¹

Variant: A12U G38A
- kcat [1]: < 1e-05 s⁻¹

Variant: A6U G7A
- kcat [1]: < 1e-05 s⁻¹
- self-cleavage kobs at 160 uM GlcN6P [6]: < 1e-05 s⁻¹
- self-cleavage kobs at 640 uM GlcN6P [7]: < 1e-05 s⁻¹

Variant: A12G U31C
- kcat [1]: 0.000113 ± 7.3e-06 s⁻¹
- KM [2]: 4090 ± 630 µM
- self-cleavage kobs at 2500 uM GlcN6P [3]: 4.42e-05 ± 9.5e-06 s⁻¹
- self-cleavage kobs at 10000 uM GlcN6P [4]: 7.95e-05 ± 1.1e-05 s⁻¹

Variant: C11A C61A
- kcat [1]: < 1e-05 s⁻¹

Variant: C11U G32A
- kcat [1]: 0.000453 ± 3.3e-05 s⁻¹
- KM [2]: 1520 ± 290 µM
- self-cleavage kobs at 160 uM GlcN6P [6]: 5.04e-05 ± 2.1e-05 s⁻¹
- self-cleavage kobs at 640 uM GlcN6P [7]: 0.00014 ± 3.1e-05 s⁻¹
- self-cleavage kobs at 2500 uM GlcN6P [3]: 0.000239 ± 5.9e-05 s⁻¹
- self-cleavage kobs at 10000 uM GlcN6P [4]: 0.000404 ± 4.4e-05 s⁻¹

Variant: C10A U65G
- kcat [1]: < 1e-05 s⁻¹
- self-cleavage kobs at 40 uM GlcN6P [5]: < 1e-05 s⁻¹
- self-cleavage kobs at 640 uM GlcN6P [7]: < 1e-05 s⁻¹
- self-cleavage kobs at 2500 uM GlcN6P [3]: < 1e-05 s⁻¹
- self-cleavage kobs at 10000 uM GlcN6P [4]: < 1e-05 s⁻¹

Variant: C8U G38A
- kcat [1]: < 1e-05 s⁻¹
- KM [2]: 371 ± 120 µM
- self-cleavage kobs at 40 uM GlcN6P [5]: < 1e-05 s⁻¹

Variant: A6U G60C C67A
- kcat [1]: < 1e-05 s⁻¹
- self-cleavage kobs at 160 uM GlcN6P [6]: < 1e-05 s⁻¹
- self-cleavage kobs at 640 uM GlcN6P [7]: < 1e-05 s⁻¹
- self-cleavage kobs at 10000 uM GlcN6P [4]: < 1e-05 s⁻¹

Variant: A12G A14C
- kcat [1]: 0.000175 ± 3.9e-06 s⁻¹
- KM [2]: 2970 ± 160 µM
- self-cleavage kobs at 640 uM GlcN6P [7]: 3.2e-05 ± 7.2e-06 s⁻¹
- self-cleavage kobs at 2500 uM GlcN6P [3]: 7.78e-05 ± 1.1e-05 s⁻¹
- self-cleavage kobs at 10000 uM GlcN6P [4]: 0.000135 ± 1.1e-05 s⁻¹

Variant: A12C G60A
- kcat [1]: < 1e-05 s⁻¹
- self-cleavage kobs at 160 uM GlcN6P [6]: < 1e-05 s⁻¹
- self-cleavage kobs at 640 uM GlcN6P [7]: < 1e-05 s⁻¹

Variant: G7A U45A
- kcat [1]: 3.18e-05 ± 3.1e-06 s⁻¹
- self-cleavage kobs at 10000 uM GlcN6P [4]: 2.85e-05 ± 1.2e-05 s⁻¹

Variant: C10U A14C
- kcat [1]: < 1e-05 s⁻¹
- self-cleavage kobs at 40 uM GlcN6P [5]: < 1e-05 s⁻¹
